Reference: patent US20220098329A1 (Memorial Sloan Kettering, published 2022)

What was measured:
[1] = target: T1, huCD3de antigen (human CD3 delta/epsilon, coated on SPR chip) (human, UniProt P07766 23-126; P04234 22-105); assay: SPR (Biacore T200), huCD3de-coated chip, BsAb titrated over chip, two-state reaction model
T1 construct: Source and construct are not described; also called CD3 coated chips

[2] = target: T1, huCD3de antigen (human CD3 …); assay: SPR (Biacore T200), huCD3de-coated chip
[3] = target: T2, CD33 on MOLM13-fluc cells (UniProt P20138 18-364, limits assumed); assay: flow cytometry, CD33(+) MOLM13-fluc cells
T2 construct: whole, on cells; also called CD33(+) MOLM13-fluc
T2 sequence (P20138 18-364 limits assumed): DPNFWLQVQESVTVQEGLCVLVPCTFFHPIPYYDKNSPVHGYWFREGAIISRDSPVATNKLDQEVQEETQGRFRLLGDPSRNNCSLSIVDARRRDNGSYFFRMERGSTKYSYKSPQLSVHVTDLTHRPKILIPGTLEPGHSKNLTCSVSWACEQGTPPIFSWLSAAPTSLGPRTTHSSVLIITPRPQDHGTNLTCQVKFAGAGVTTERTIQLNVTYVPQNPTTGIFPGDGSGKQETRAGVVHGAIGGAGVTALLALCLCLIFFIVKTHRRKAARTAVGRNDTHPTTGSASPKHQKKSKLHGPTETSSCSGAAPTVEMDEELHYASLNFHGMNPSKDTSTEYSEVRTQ

T1 sequence (P07766 23-126, stated change not applied, chain 1 of 2): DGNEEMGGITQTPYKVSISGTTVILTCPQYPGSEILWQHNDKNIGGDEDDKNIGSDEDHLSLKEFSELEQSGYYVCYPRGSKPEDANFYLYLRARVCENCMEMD
T1 sequence (P04234 22-105, stated change not applied, chain 2 of 2): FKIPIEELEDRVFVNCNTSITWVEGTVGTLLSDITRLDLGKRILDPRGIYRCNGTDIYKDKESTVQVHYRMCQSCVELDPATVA

| Binder | Kd [1] [nM] | Fold Change (KD CD3, against 2+2) [2] [fold] | binding result [3] |
| --- | --- | --- | --- |
| 1+1T IgG-[L]-scFv variant, one anti-GD2 Fab and one anti-CD3 scFv in trans, second Fab irrelevant (anti-CD33) (bispecific antibody) light 1: EIVMTQTPATLSVSAGERVTITCKASQSVSNDVTWYQQKPGQAPRLLIYSASNRYSGVPARFSGSGYGTEFTFTISSVQSEDFAVYFCQQDYSSFGQGTKLEIKRTVAAPSVFIFPPSDEQLKSGTASVVCLLNNFYPREAKVQWKVDNALQSGNSQESVTEQDSKDSTYSLSSTLTLSKADYEKHKVYACEVTHQGLSSPVTKSFNRGEC heavy 1: not shown light 2: EIVLTQSPATLSVSLGERATISCRASESVDNYGISFMNWFQQKPGQPPRLLIYAASNQGSGVPARFSGSGPGTDFTLTISSMEPEDFAMYFCQQSKEVPWTFGGGTKLEIKRTVAAPSVFIFPPSDEQLKSGTASVVCLLNNFYPREAKVQWKVDNALQSGNSQESVTEQDSKDSTYSLSSTLTLSKADYEKHKVYACEVTHQGLSSPVTKSFNRGECTSGGGGSGGGGSGGGGSQVQLVQSGGGVVQPGRSLRLSCKASGYTFTRYTMHWVRQAPGKCLEWIGYINPSRGYTNYNQKFKDRFTISRDNSKNTAFLQMDSLRPEDTGVYFCARYYDDHYSLDYWGQGTPVTVSSGGGGSGGGGSGGGGSGGGGSGGGGSGGGGSDIQMTQSPSSLSASVGDRVTITCSASSSVSYMNWYQQTPGKAPKRWIYDTSKLASGVPSRFSGSGSGTDYTFTISSLQPEDIATYYCQQWSSNPFTFGCGTKLQITR heavy 2: not shown | 88 | 8.5 |  |
| IgG-Het, heterodimeric IgG with one anti-GD2 Fab and one anti-CD3 Fab (1+1) (bispecific antibody, also called 1+1H; 1 + 1H) light 1: EIVMTQTPATLSVSAGERVTITCKASQSVSNDVTWYQQKPGQAPRLLIYSASNRYSGVPARFSGSGYGTEFTFTISSVQSEDFAVYFCQQDYSSFGQGTKLEIKRTVAAPSVFIFPPSDEQLKSGTASVVCLLNNFYPREAKVQWKVDNALQSGNSQESVTEQDSKDSTYSLSSTLTLSKADYEKHKVYACEVTHQGLSSPVTKSFNRGEC heavy 1: not shown light 2: DIQMTQSPSSLSASVGDRVTITCSASSSVSYMNWYQQTPGKAPKRWIYDTSKLASGVPSRFSGSGSGTDYTFTISSLQPEDIATYYCQQWSSNPFTFGQGTKLQITRTVAAPSVFIFPPSDEQLKSGTASVVCLLNNFYPREAKVQWKVDNALQSGNSQESVTEQDSKDSTYSLSSTLTLSKADYEKHKVYACEVTHQGLSSPVTKSFNRGEC heavy 2: not shown | 70 | 6.8 |  |
| 2+2 IgG-[L]-scFv, anti-CD33 Fab x anti-CD3 scFv (bispecific antibody, also called 2+2 (CD33); anti-CD33/CD3 IgG-[L]-scFv) light: EIVLTQSPATLSVSLGERATISCRASESVDNYGISFMNWFQQKPGQPPRLLIYAASNQGSGVPARFSGSGPGTDFTLTISSMEPEDFAMYFCQQSKEVPWTFGGGTKLEIKRTVAAPSVFIFPPSDEQLKSGTASVVCLLNNFYPREAKVQWKVDNALQSGNSQESVTEQDSKDSTYSLSSTLTLSKADYEKHKVYACEVTHQGLSSPVTKSFNRGECTSGGGGSGGGGSGGGGSQVQLVQSGGGVVQPGRSLRLSCKASGYTFTRYTMHWVRQAPGKCLEWIGYINPSRGYTNYNQKFKDRFTISRDNSKNTAFLQMDSLRPEDTGVYFCARYYDDHYSLDYWGQGTPVTVSSGGGGSGGGGSGGGGSGGGGSGGGGSGGGGSDIQMTQSPSSLSASVGDRVTITCSASSSVSYMNWYQQTPGKAPKRWIYDTSKLASGVPSRFSGSGSGTDYTFTISSLQPEDIATYYCQQWSSNPFTFGCGTKLQITR heavy: not shown |  |  | binds |
| 2+2 IgG-[L]-scFv bispecific antibody, anti-GD2 Fab x anti-CD3 scFv (2(GD2)+2(CD3)) (bispecific antibody, Homodimeric format; also called 2+2 BsAb; parental 2+2) light: EIVMTQTPATLSVSAGERVTITCKASQSVSNDVTWYQQKPGQAPRLLIYSASNRYSGVPARFSGSGYGTEFTFTISSVQSEDFAVYFCQQDYSSFGQGTKLEIKRTVAAPSVFIFPPSDEQLKSGTASVVCLLNNFYPREAKVQWKVDNALQSGNSQESVTEQDSKDSTYSLSSTLTLSKADYEKHKVYACEVTHQGLSSPVTKSFNRGECTSGGGGSGGGGSGGGGSQVQLVQSGGGVVQPGRSLRLSCKASGYTFTRYTMHWVRQAPGKCLEWIGYINPSRGYTNYNQKFKDRFTISRDNSKNTAFLQMDSLRPEDTGVYFCARYYDDHYSLDYWGQGTPVTVSSGGGGSGGGGSGGGGSGGGGSGGGGSGGGGSDIQMTQSPSSLSASVGDRVTITCSASSSVSYMNWYQQTPGKAPKRWIYDTSKLASGVPSRFSGSGSGTDYTFTISSLQPEDIATYYCQQWSSNPFTFGCGTKLQITR heavy: not shown | 10 |  |  |
| 1+1C IgG-[L]-scFv variant, one anti-GD2 Fab and one anti-CD3 scFv in cis, second Fab irrelevant (anti-CD33) (bispecific antibody) light 1: EIVMTQTPATLSVSAGERVTITCKASQSVSNDVTWYQQKPGQAPRLLIYSASNRYSGVPARFSGSGYGTEFTFTISSVQSEDFAVYFCQQDYSSFGQGTKLEIKRTVAAPSVFIFPPSDEQLKSGTASVVCLLNNFYPREAKVQWKVDNALQSGNSQESVTEQDSKDSTYSLSSTLTLSKADYEKHKVYACEVTHQGLSSPVTKSFNRGECTSGGGGSGGGGSGGGGSQVQLVQSGGGVVQPGRSLRLSCKASGYTFTRYTMHWVRQAPGKCLEWIGYINPSRGYTNYNQKFKDRFTISRDNSKNTAFLQMDSLRPEDTGVYFCARYYDDHYSLDYWGQGTPVTVSSGGGGSGGGGSGGGGSGGGGSGGGGSGGGGSDIQMTQSPSSLSASVGDRVTITCSASSSVSYMNWYQQTPGKAPKRWIYDTSKLASGVPSRFSGSGSGTDYTFTISSLQPEDIATYYCQQWSSNPFTFGCGTKLQITR heavy 1: not shown light 2: EIVLTQSPATLSVSLGERATISCRASESVDNYGISFMNWFQQKPGQPPRLLIYAASNQGSGVPARFSGSGPGTDFTLTISSMEPEDFAMYFCQQSKEVPWTFGGGTKLEIKRTVAAPSVFIFPPSDEQLKSGTASVVCLLNNFYPREAKVQWKVDNALQSGNSQESVTEQDSKDSTYSLSSTLTLSKADYEKHKVYACEVTHQGLSSPVTKSFNRGEC heavy 2: not shown | 110 | 11 |  |
| 1+2 IgG-[L]-scFv variant, one anti-GD2 Fab, one irrelevant (anti-CD33) Fab, two anti-CD3 scFv (1(GD2)+2(CD3)) (bispecific antibody, also called 1+2 BsAb) light 1: EIVMTQTPATLSVSAGERVTITCKASQSVSNDVTWYQQKPGQAPRLLIYSASNRYSGVPARFSGSGYGTEFTFTISSVQSEDFAVYFCQQDYSSFGQGTKLEIKRTVAAPSVFIFPPSDEQLKSGTASVVCLLNNFYPREAKVQWKVDNALQSGNSQESVTEQDSKDSTYSLSSTLTLSKADYEKHKVYACEVTHQGLSSPVTKSFNRGECTSGGGGSGGGGSGGGGSQVQLVQSGGGVVQPGRSLRLSCKASGYTFTRYTMHWVRQAPGKCLEWIGYINPSRGYTNYNQKFKDRFTISRDNSKNTAFLQMDSLRPEDTGVYFCARYYDDHYSLDYWGQGTPVTVSSGGGGSGGGGSGGGGSGGGGSGGGGSGGGGSDIQMTQSPSSLSASVGDRVTITCSASSSVSYMNWYQQTPGKAPKRWIYDTSKLASGVPSRFSGSGSGTDYTFTISSLQPEDIATYYCQQWSSNPFTFGCGTKLQITR heavy 1: not shown light 2: EIVLTQSPATLSVSLGERATISCRASESVDNYGISFMNWFQQKPGQPPRLLIYAASNQGSGVPARFSGSGPGTDFTLTISSMEPEDFAMYFCQQSKEVPWTFGGGTKLEIKRTVAAPSVFIFPPSDEQLKSGTASVVCLLNNFYPREAKVQWKVDNALQSGNSQESVTEQDSKDSTYSLSSTLTLSKADYEKHKVYACEVTHQGLSSPVTKSFNRGECTSGGGGSGGGGSGGGGSQVQLVQSGGGVVQPGRSLRLSCKASGYTFTRYTMHWVRQAPGKCLEWIGYINPSRGYTNYNQKFKDRFTISRDNSKNTAFLQMDSLRPEDTGVYFCARYYDDHYSLDYWGQGTPVTVSSGGGGSGGGGSGGGGSGGGGSGGGGSGGGGSDIQMTQSPSSLSASVGDRVTITCSASSSVSYMNWYQQTPGKAPKRWIYDTSKLASGVPSRFSGSGSGTDYTFTISSLQPEDIATYYCQQWSSNPFTFGCGTKLQITR heavy 2: not shown | 11 | 1 |  |
| 2+1 IgG-[L]-scFv variant, two anti-GD2 Fabs and one anti-CD3 scFv (2(GD2)+1(CD3)) (bispecific antibody, Heterodimer made by Fab arm exchange; Choice of the first anti-GD2 set as for m1; also called 2+1 BsAb) light 1: EIVMTQTPATLSVSAGERVTITCKASQSVSNDVTWYQQKPGQAPRLLIYSASNRYSGVPARFSGSGYGTEFTFTISSVQSEDFAVYFCQQDYSSFGQGTKLEIKRTVAAPSVFIFPPSDEQLKSGTASVVCLLNNFYPREAKVQWKVDNALQSGNSQESVTEQDSKDSTYSLSSTLTLSKADYEKHKVYACEVTHQGLSSPVTKSFNRGECTSGGGGSGGGGSGGGGSQVQLVQSGGGVVQPGRSLRLSCKASGYTFTRYTMHWVRQAPGKCLEWIGYINPSRGYTNYNQKFKDRFTISRDNSKNTAFLQMDSLRPEDTGVYFCARYYDDHYSLDYWGQGTPVTVSSGGGGSGGGGSGGGGSGGGGSGGGGSGGGGSDIQMTQSPSSLSASVGDRVTITCSASSSVSYMNWYQQTPGKAPKRWIYDTSKLASGVPSRFSGSGSGTDYTFTISSLQPEDIATYYCQQWSSNPFTFGCGTKLQITR light 2: EIVMTQTPATLSVSAGERVTITCKASQSVSNDVTWYQQKPGQAPRLLIYSASNRYSGVPARFSGSGYGTEFTFTISSVQSEDFAVYFCQQDYSSFGQGTKLEIKRTVAAPSVFIFPPSDEQLKSGTASVVCLLNNFYPREAKVQWKVDNALQSGNSQESVTEQDSKDSTYSLSSTLTLSKADYEKHKVYACEVTHQGLSSPVTKSFNRGEC heavy 1: QVQLVESGPGVVQPGRSLRISCAVSGFSVTNYGVHWVRQPPGKGLEWLGVIWAGGITNYNSAFMSRLTISKDNSKNTVYLQMNSLRAEDTAMYYCASRGGHYGYALDYWGQGTLVTVSSASTKGPSVFPLAPSSKSTSGGTAALGCLVKDYFPEPVTVSWNSGALTSGVHTFPAVLQSSGLYSLSSVVTVPSSSLGTQTYICNVNHKPSNTKVDKRVEPKSCDKTHTCPPCPAPELLGGPSVFLFPPKPKDTLMISRTPEVTCVVVDVSHEDPEVKFNWYVDGVEVHNAKTKPREEQYASTYRVVSVLTVLHQDWLNGKEYKCAVSNKALPAPIEKTISKAKGQPREPQVYTLPPSRDELTKNQVSLTCLVKGFYPSDIAVEWESNGQPENNYKTTPPVLDSDGSFLLYSKLTVDKSRWQQGNVFSCSVMHEALHNHYTQKSLSLSPGK heavy 2: QVQLVESGPGVVQPGRSLRISCAVSGFSVTNYGVHWVRQPPGKGLEWLGVIWAGGITNYNSAFMSRLTISKDNSKNTVYLQMNSLRAEDTAMYYCASRGGHYGYALDYWGQGTLVTVSSASTKGPSVFPLAPSSKSTSGGTAALGCLVKDYFPEPVTVSWNSGALTSGVHTFPAVLQSSGLYSLSSVVTVPSSSLGTQTYICNVNHKPSNTKVDKRVEPKSCDKTHTCPPCPAPELLGGPSVFLFPPKPKDTLMISRTPEVTCVVVDVSHEDPEVKFNWYVDGVEVHNAKTKPREEQYASTYRVVSVLTVLHQDWLNGKEYKCAVSNKALPAPIEKTISKAKGQPREPQVYTLPPSRDELTKNQVSLTCLVKGFYPSDIAVEWESNGQPENNYKTTPPVLDSDGSFFLYSRLTVDKSRWQQGNVFSCSVMHEALHNHYTQKSLSLSPGK | 310 | 30.1 |  |
